Target: T1, human TF-Fc (Homo sapiens, UniProt P13726)
T1 construct: tissue factor (TF; CD142), human; Construct limits may be in Supplementary file1; also called human tissue factor Fc fusion protein; HuTF; source: Expi293F, transfected (pcDNA3.1(-), Genscript), purified from supernatant (Protein A; for SPR also SEC on Superdex 200 after 2 mM DTT)
Test: SPR; human TF-Fc amine-coupled to a CM5 chip (target 500 RU); scFvFc flowed over at 18.75-3.125 nM in PBS-EP (0.01% Tween20, 300 mM NaCl PBS, pH 7.4), 30 µL/min, contact 180 s, dissociation 600 s; 25 °C; Biacore X100; global fit, 1:1 binding model
Conditions: both partners purified

T1 sequence (P13726 33-251): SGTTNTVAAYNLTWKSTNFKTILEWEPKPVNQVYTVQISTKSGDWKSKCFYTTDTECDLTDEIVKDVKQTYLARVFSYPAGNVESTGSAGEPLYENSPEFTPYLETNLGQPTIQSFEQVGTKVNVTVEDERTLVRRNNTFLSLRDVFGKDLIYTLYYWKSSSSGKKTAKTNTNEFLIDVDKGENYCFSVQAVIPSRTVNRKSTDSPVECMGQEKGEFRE

B1: TF8-5G9 anti-TF scFvFc (scFv, V domains shown)
VH: EIQLQQSGAELVRPGALVKLSCKASGFNIKDYYMHWVKQRPEQGLEWIGLIDPENGNTIYDPKFQGKASITADTSSNTAYLQLSSLTSEDTAVYYCARDNSYYFDYWGQGTTLTVSS
VL: DIKMTQSPSSMYASLGERVTITCKASQDIRKYLNWYQQKPWKSPKTLIYYATSLADGVPSRFSGSGSGQDYSLTISSLESDDTATYYCLQHGESPYTFGGGTKLEIN
notes: also called TF8-5G9 scFvFc; TF85G9 scFvFc; source: Expi293F, transfected (pcDNA3.1(-)), purified from supernatant (Protein A, then SEC on Superdex 200 after 2 mM DTT)
B1 gave a Kd of 0.37 nM.

B2: hATR-5 scFvFc (scFv, V domains shown)
VH: QVQLLESGAVLARPGTSVKISCKASGFNIKDYYMHWVKQRPGQGLEWIGGNDPANGHSMYDPKFQGRVTITADTSTSTVFMELSSLRSEDTAVYYCARDSGYAMDYWGQGTLVTVSS
VL: DIQMTQSPSSLSASVGDRVTITCKASQDIKSFLSWYQQKPEKAPKSLIYYATSLADGVPSRFSGSGSGTDYTLTISSLQPEDFATYYCLQHGESPYTFGGGTKVEIK
notes: source: Expi293F, transfected (pcDNA3.1(-)), purified from supernatant (Protein A, then SEC on Superdex 200 after 2 mM DTT)
For B2, the Kd was 0.46 nM.

Source: article PMC11303627 (Cancer Immunology, Immunotherapy : CII, 2024)
